In patent publication US6964763:

Tests used:
[1] = target: CHO cell-expressed soluble recombinant CD4 (UniProt P01730); assay: competition: 125I-CD4 on immobilized gp120 (MN and LAI), 10-fold molar excess of fusion protein
[2] = target: Recombinant baculovirus-expressed HIV-1 gp120 derived from the LAV isolate (HIV-1 isolate LAV (LAI)) (UniProt P03377); assay: competition: 125I-CD4 on immobilized gp120, 10-fold molar excess of peptide; isolate (MN or LAI) not stated
[3] = target: Recombinant baculovirus-expressed HIV-1 gp120 derived from the MN isolate (HIV-1 isolate MN) (UniProt P05877); assay: as above
[4] = target: CSVTCG peptide derived from TSP1 properdin-like Type 1 repeat; assay: solid phase binding, 125I-gp120 on immobilized peptide, saturation isotherms

| Substance | % inhibition [1] [%] | % inhibition [3] [%] | other results |
| --- | --- | --- | --- |
| GST/LIMPII fusion protein LFP156-243 (from UniProt Q14108 156-243) | 32 | – | – |
| GRGDS peptide derived from TSP1 calcium binding Type 3 repeat | – | 4 | % inhibition [2]: 4% |
| Recombinant baculovirus-expressed HIV-1 gp120 derived from the LAV isolate (from UniProt P03377 33-516) | – | – | Kd [4]: 300 nM |
| CSVTCG peptide derived from TSP1 properdin-like Type 1 repeat | – | 53 | – |
| GST/LIMPII fusion protein LFP75-155 (from UniProt Q14108 75-155) | 89 | – | – |
| GST/CD36 fusion protein CFP67-157 (from UniProt P16671 67-157) | 89 | – | – |
